Biological target: murine SCI/MIP1-α Variant 3 (murine) (UniProt P10855)
Assay: chromatographic techniques, molecular weight estimate

estimated molecular weight (self-association): 8 kD
Substance: murine SCI/MIP1-α Variant 3 (from UniProt P10855) (ligand)
